These results are taken from patent publication US20210179717A1 (ALBERT LUDWIGS UNIVERSIT T FREIBURG, published 2021).

For assay [1], the target named is human Mac-1 (αMβ2, CD11b/CD18), native, non-activated (WT) (human, UniProt P11215 17-1152; P05107 23-769). The assay is described as follows: western blot of CHO cells over-expressing Mac-1. In general terms: Immunoblotting shows a protein as a band on a membrane.
Assay [2] addresses T1, peptide M7 (EQLKKSKTL) (human).
T1 construct: Immobilised peptide from the human Mac-1 αM I-domain
T1 peptide: EQLKKSKTL
The assay is described as follows: solid phase binding assay, immobilized peptide M7.

In assay [3] the target is T2, scrambled peptide sM7 (KLSLEKQTK).
T2 construct: Scrambled control of M7
T2 peptide: KLSLEKQTK
The assay is described as follows: solid phase binding (ELISA) with immobilized peptides. Background: In an ELISA, binding on a coated surface is turned into a signal by an enzyme label.
Description: (§1) Specific binding was calculated by subtraction of binding of mouse IgG to the peptides.

In assay [4] the target is T3, peptide M8 (EEFRIHFT) (human).
T3 peptide: EEFRIHFT
The assay is described as above.
Description: as §1

B1: anti-M7 (mouse monoclonal antibody, clone RC3, mouse IgG2bκ) (antibody, V domains shown)
VH: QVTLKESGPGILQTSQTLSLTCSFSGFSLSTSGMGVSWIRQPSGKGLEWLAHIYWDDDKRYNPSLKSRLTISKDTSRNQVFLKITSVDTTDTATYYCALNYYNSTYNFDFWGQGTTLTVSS
VL: DIQMTQSPSSLSASLGERVSLTCRASQEISGYLSWHQQKPDGTIKRLLYSTSTLDSGVPKRFSGSRSGSDYSLTISSLESEDFADYYCLQYAISPPTFGGGTKLEIK
notes: Coupled to Alexa Fluor 647 for flow cytometry; also called anti-M7-Alexa 647
B1: the binding result is recorded as “binds” in assay [1], “binds” in assay [2], “no binding” in assay [3] and “no binding” in assay [4].
